Measured values as given in paper PMC9828552.

Experiments:
purified protein [1] = substrate: C[C@H](N)C(=O)O; assay: purified protein; details: oxidative deamination, 1 mM NAD+, 100 mM NaHCO3 pH 10, 25 °C
purified protein [2] = substrate: O=CO; assay: purified protein; details: 3 mM NAD+, 25 mM potassium phosphate pH 7.5, 25 °C

Row | Protein | Km (purified protein [1]) | kcat (purified protein [1]) | Km (purified protein [2]) | kcat (purified protein [2])
1 | AlaDH-FDH-His fusion protein (AlaDH domain) (Halomonas elongata DSM 2581) (protein) MKIAVPKEIKNHEYRVALTPSGARELVGRGHDVIVQAAAGEGAGFSDADFEAAGARLEADVAKLWDDAELILKVKEPQAEEVARLSAGQTLFTYLHLAAEESLTKGLLDSGATCIAYETITAPEGGLPLLAPMSTVAGRMAVQAGAHSLEKAQGGAGILLPGVPGVAPARVTVIGGGVVGENAARMALGLGAEVTVLDKSIPRLETLDDRYQGRMKTVFSTADALEEAVRESDLIIGAVLVPGAAAPKLITRDMLSDMKPGSVLVDVAIDQGGCFETSKPTTHAEPTYVVDGVVHYCVANMPGAVARTSTQALTNATLPFVVALADKGWQKALADDDHFAAGLNVHDGKLTYRAVAEAFGLEYVEAASLIG | 11.4 ± 1.5 mM | 1.7 s⁻¹ |  | 
2 | AlaDH-FDH-His fusion protein (FDH domain) ([Candida] boidinii) (protein) MKIVLVLYDAGKHAADEEKLYGCTENKLGIANWLKDQGHELITTSDKEGETSELDKHIPDADIIITTPFHPAYITKERLDKAKNLKLVVVAGVGSDHIDLDYINQTGKKISVLEVTGSNVVSVAEHVVMTMLVLVRNFVPAHEQIINHDWEVAAIAKDAYDIEGKTIATIGAGRIGYRVLERLLPFNPKELLYYDYQALPKEAEEKVGARRVENIEELVAQADIVTVNAPLHAGTKGLINKELLSKFKKGAWLVNTARGAICVAEDVAAALESGQLRGYGGDVWFPQPAPKDHPWRDMRNKYGAGNAMTPHYSGTTLDAQTRYAEGTKNILESFFTGKFDYRPQDIILLNGEYVTKAYGKHDKK |  |  | 7.8 ± 1.4 mM | 0.7 s⁻¹
3 | WT FDH (CbFDH) ([Candida] boidinii) (protein) MKIVLVLYDAGKHAADEEKLYGCTENKLGIANWLKDQGHELITTSDKEGETSELDKHIPDADIIITTPFHPAYITKERLDKAKNLKLVVVAGVGSDHIDLDYINQTGKKISVLEVTGSNVVSVAEHVVMTMLVLVRNFVPAHEQIINHDWEVAAIAKDAYDIEGKTIATIGAGRIGYRVLERLLPFNPKELLYYDYQALPKEAEEKVGARRVENIEELVAQADIVTVNAPLHAGTKGLINKELLSKFKKGAWLVNTARGAICVAEDVAAALESGQLRGYGGDVWFPQPAPKDHPWRDMRNKYGAGNAMTPHYSGTTLDAQTRYAEGTKNILESFFTGKFDYRPQDIILLNGEYVTKAYGKHDKK |  |  | 5.0 ± 1.0 mM | 1.3 s⁻¹
